Data published in the nanobody polyreactivity screen of Harvey et al. (2022).

test: yeast display, Sf9 membrane polyspecificity reagent, FACS + sequencing; frameworks hold sequencing errors
Summary of the method: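 Genes from sorted yeast were amplified by colony PCR, read by MiSeq 2 × 250 sequencing and filtered on CDR length. These cells carried a synthetic nanobody library in Saccharomyces cerevisiae BJ5465 and were sorted by FACS into low and high (top ~1%) gates on anti-HA and streptavidin fluorescence. Polyreactivity is labelled according to the gate of origin.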

Sequence | polyreactivity (PSR sort gate)
QVQLVESGGGLVQAGGSLRLSCAASGRTFFRYAMGWYRPAPGKERELVAAITRSGGSTYYADSVKGRFTISRDNAKNTVYLLMNSLKPEDTAVYYCAAPREAYSRGYDSWGQGTQVTVSS | high polyreactivity
QVQLVESGGGLVQAGGSLRLSCAASGRTFFSNAMGWYRQAPGKERELVAAISNGDNTYFADSVKGRFTISRDNAKNTVYLQMNSLKPEDTAVYYCNTVRRSYWSWSTENSDYWGQGTQVTVSS | low polyreactivity
QVQLVESGGGLVQAGGSLRLSCAASGRTFFTYAMGWYRQAPGKERELVAAITGSGGSTSYADSVKGRFTISRDNAKNTVYLQMNSLKPEDTAVYYCAADWQELEYDYWGQGTQVNVSS | low polyreactivity
QVQLVESGGGLVQAGGSLRLSCAASGRTFFVNAMGGYRQAPGKERELVAAITWSGGSTSYADSVKGRFTISRDKAKNNVSLQLNSLKPEDTAVYYCAAEYYSYSHSYYYYGYEYWGQGTQVNVSS | high polyreactivity
QVQLVESGGGLVQAGGSLRLSCAASGRTFFYNAMGWYRQAPGKERELVAAIDWSGDSTYYADSVKGRFTISRDNAKNTVYLQMNSLKPEDTAVYYCAADGGQVDDSATRLYYWGQGTQVTVSS | high polyreactivity
QVQLVESGGGLVQAGGSLRLSCAASGRTFFYNTMGWYRQAPGKERELVAAISYRGGRTYYADSVKGRFTISRDNAKNTVYLQMNSLKPEDTAVYYCNAYSYGHYYWGQGTQVTVSS | high polyreactivity
QVQLVESGGGLVQAGGSLRLSCAASGRTFFYNTMGWYRQAPGKERELVAAITSSGGRTSYADSVKGRFTISRDNAKNTVYLQMNSLKPEDTAVYYCAALYSYYSLYDDYDYWGQGTQVTVSS | high polyreactivity
QVQLVESGGGLVQAGGSLRLSCAASGRTFFYYAMGWYRPAPGKERELVAGSTNYADSVKGRFTISRDNAKNTVYLQMNSLKPEETAVYYCNADPDDYWGQGTQVTVSS | low polyreactivity
QVQLVESGGGLVQAGGSLRLSCAASGRTFFYYTMGWYRQAPGKEREFVASISWSGASTYYADSVKGRFTISRDNAKNTVYLQMNSLKPEDSAVYYCAAPVTGGAYGYDYWGQGTQVTVSS | high polyreactivity
QVQLVESGGGLVQAGGSLRLSCAASGRTFGANAMGWYRQAPGKERELVAAISSSDDSTYYADSVKGRFTISRDNAKKTDDLQMNSLKPEDTAVYYCAVAVGYTDSPYSYDYWGQGTQVTVSS | low polyreactivity
QVQLVESGGGLVQAGGSLRLSCAASGRTFGANVMGWYRQAPGKERELVARISNGGRTSYADSVKARFTISRDNAKNPVYLQMNSLKPEDTAVYYCAALVVNVFPRYGYWGQGTQVTVSS | high polyreactivity
QVQLVESGGGLVQAGGSLRLSCAASGRTFGAYAMGWYRQAPGKERELVAAIDSGGITYYADSVKGRFTISRDNAKNTVYLQMNSLKPEDTAVYYCAADHRVVTFYEGDYWGQGTQVTVSS | low polyreactivity
QVQLVESGGGLVQAGGSLRLSCAASGRTFGAYAMGWYRQAPGKERELVASISRSGGTTYYADSVKGRFTISRDTAKNTVYLQMNSLKPEDTAVYYCAAQYVRYGHYYWGQATQVTVSS | high polyreactivity
QVQLVESGGGLVQAGGSLRLSCAASGRTFGDNAMGWYRQARGKERELVAAISSGDSTYYADSVKGRFTISRDNAKNSVYLQMNSLKPEDTAVYYCAARWRYTFYVSYYYWGQGTQVTVSS | high polyreactivity
QVQLVESGGGLVQAGGSLRLSCAASGRTFGEYAMGWYRQAPGKERELVAAITGGDSTNYADSVKGRFTISRDNAKNTVYFQMNSLKPEDTAVYYCAAYGVKVLWTLTTYDYWGQGTQVTVSS | low polyreactivity
QVQLVESGGGLVQAGGSLRLSCAASGRTFGFNVMGWYRQAPGKERELVAAISWSGGSTYYADSVKGRFTISRDNAKNTVYLQMNSLKPEDTAVYYCNNRYVHRYGYWGQGTQVTVSS | low polyreactivity
QVQLVESGGGLVQAGGSLRLSCAASGRTFGGNAMGWDRQAPGKERELLAAITGRGGSTYYADSLKGRFTISRDNAKNTVYLQMNSLKPEDTAVYYCNADGSAYIEDGYDYWGQGTQVTVSS | low polyreactivity
QVQLVESGGGLVQAGGSLRLSCAASGRTFGGNAMGWYRQAPGKERELVAAISGRGGSTYYADSVKGRFTISRDNAKNTVYLQMNSLKPEDTAVYYCAARSYLTPEYYYWGQGTQVTVSS | high polyreactivity
QVQLVESGGGLVQAGGSLRLSCAASGRTFGGYAMGWSRQAPGKERELVAAISWSGGRTYYADSVKGRFTISRDNAKNTVYLQMNSLKPEDTAVYYCAATSGRAFKYDYWGQGTQVTVSS | high polyreactivity
QVQLVESGGGLVQAGGSLRLSCAASGRTFGGYAMGWYRQAPGKERELVAAIRWSGGSTYYADSVKGRFTISRDNAKNTVYLQMNSLKPEDTAVYNCAARSHTSADGGRYYYWGQGTQVTVSS | high polyreactivity
QVQLVESGGGLVQAGGSLRLSCAASGRTFGGYAMGWYRQAPGKERELVAAISSSGTRTYYAESVKGRFTISRDNAKNTVYLQMNSLKPEDTAVYYCAAYRVIVWYAMDYWGQGTQVTVSS | high polyreactivity

Sequence | polyreactivity (PSR sort gate)
QVQLVESGGGLVQAGGSLRLSCAASGRTFGGYAMGWYRQAPGKERELVASITRSGGGTYYADSVKGRFTISRDNAKNTVYLQMNSLKPEDTAVYYCAVYFANPYSVYGLGVYSTLNYWGQGTQVTVSS | low polyreactivity
QVQLVESGGGLVQAGGSLRLSCAASGRTFGGYVMGWYRQAPGKESELVATITDSGGSTHYADSVKGRFTISRDNAKNTVYLQMNSLKPEDTAVYYCARRRSYRYPSEYNYWGQGTQVTVSS | high polyreactivity
QVQLVESGGGLVQAGGSLRLSCAASGRTFGINAMGWYRQAPGKERELVARIRKTVGSTYYADSVKGRFTISRDNAKNTVYLQMNSLKPEDTAVYYCAADLRYGYLYPYDSWGQGTQVTVSS | high polyreactivity
QVQLVESGGGLVQAGGSLRLSCAASGRTFGIYAMGWYRQAPGKERELVAAISSDASTSYADSVKGRFTISRDNAKNTVYLQMNSLKPEDTAVYYCAADPGPYYDWGYDYWGQGTQVTVSS | low polyreactivity
QVQLVESGGGLVQAGGSLRLSCAASGRTFGIYAMGWYRQAPGKERELVAAITGRGGSTHYADSVKGRFTISRDNAKNTVYLQMNSLKPEDTAVYYCNARWWVIRPYQRHDYWGQGTQVTVSS | low polyreactivity
QVQLVESGGGLVQAGGSLRLSCAASGRTFGIYAMGWYRQATGKERELVAGITWTGGSTYYADSVKGRFTISRDNAKNTVYLQMNSLKPEDTAVYYCAADFYVLQFYGLDYGYWGQGTQVTVSS | low polyreactivity
QVQLVESGGGLVQAGGSLRLSCAASGRTFGKNAMGWYRQAPGKEREFVAAITSRGGSTYYADSVKGRFTISRDNAKNTVYLQMNSLKPEDTAVYYCNREYNRPSQRTEHYYWGQGTQVTVSS | low polyreactivity
QVQLVESGGGLVQAGGSLRLSCAASGRTFGKNAMGWYRQAPGKERELVAAISWSGGRTYYADSVKGRFTISRDNAKNTVYLQMNSLKPEDTAVYYCAAVRRRRNSYGYWGQGTQVNVSS | high polyreactivity
QVQLVESGGGLVQAGGSLRLSCAASGRTFGKYAMGWYRQAPGKDRELVATISRSGGSTYYAVSVKGRFTISRDNAKNTVYLQMNSLKPEDTAVYYCNAVTSRYIWPPVVDRYHYWGQGTQVTVSS | high polyreactivity
QVQLVESGGGLVQAGGSLRLSCAASGRTFGLYAMGWYRQAPGKERELVATITTSDIMTYYADSVKGRFTISRDNAKNTVYLQMNRLKPEDTAVYYCATGGYDDFSSRPANDYWGQGTQVTVSS | low polyreactivity
QVQLVESGGGLVQAGGSLRLSCAASGRTFGNNAMGWYRQAPGKERELVASISSSGGTNYADSVKGRFTISRDNAKNTVYLLMNSLIPEDTAVYYCAKRKFTARQRFWGQGTQVTVSS | high polyreactivity
QVQLVESGGGLVQAGGSLRLSCAASGRTFGNYVMGWYRQAPGKERELVAAISRSGGSTYYADSVKGRFTISRDNAKNTVYLQMNSLKPVDTAVYYCNTVTTYEVEYWGQGTQVNVSS | high polyreactivity
QVQLVESGGGLVQAGGSLRLSCAASGRTFGPYAMGWYRQAPGKERELVAAITCSGGSTYYADSVKGRFTISRYNAKNTVYLQMNSLKPEDTAVYYCAPYHLSKLDYWGQGTQVTVSS | low polyreactivity
QVQLVESGGGLVQAGGSLRLSCAASGRTFGPYAMGWYRQAPGKEREMVAAIRFSGGSTYYADSVKGRFTISRDNAKNTVYLQMNSLKPEDTAVYYCNARLGSSKGRVEKYGSWGQGTQVTVSS | high polyreactivity
QVQLVESGGGLVQAGGSLRLSCAASGRTFGPYVMGGDRQAPGKERELVAGITSGGSTNYADSVKGRFTISRDNAKNTVYRQMNSLKPEDTAVYYCNADYLIYFGLYEYWGHGTQVTVSS | low polyreactivity
QVQLVESGGGLVQAGGSLRLSCAASGRTFGRNAMGWYRQAPGKERELVAAISDRGASTYYADSVKGRFTISRDNAKNTVYLQMNSLKPEDTAVYYCAAVFWVDILPGDYWGQGTQVTVSS | low polyreactivity
QVQLVESGGGLVQAGGSLRLSCAASGRTFGRNDMGWYRQAPGKERELLATITSGGSTNYADSVKGRFTISRDNAKNTVYLQMISLKPEDTAVYYCAAEFSPSRWAYSEGALRYNYWGQGTQVTVSS | low polyreactivity
QVQLVESGGGLVQAGGSLRLSCAASGRTFGRNVMGWYRQAPGKERELVAAISRSGGSTYYADSVKGRFTISRDNAKNTVYLQMNSLKPEDTAVYYCAAKYYRDRDWGQGTQVTVSS | high polyreactivity
QVQLVESGGGLVQAGGSLRLSCAASGRTFGRYALGWYRQAPGKERELVAAIRSGGSTYYADSVKGRFTISRDNAKNTVYLQMNSLKPEDTAVYYCAADIARHLTGFAYYRLDYWGQGTQVTVSS | low polyreactivity
QVQLVESGGGLVQAGGSLRLSCAASGRTFGRYAMGWSRQAPGKERELVAAIRYTGGSTYADSVKGRFTISRDNAKNTVYLQMNSLKPEDTAVYYCAVLFYNNFGYWGQGTQVTVSS | low polyreactivity
